Patent US20130136756A1

Key:
24P4C12 (human) [1] = target: 24P4C12 (human) (UniProt Q53GD3); assay: FACS on LNCaP cells, ADC at 23.704 nM
24P4C12 (human) [2] = target: 24P4C12 (human) (UniProt Q53GD3); assay: FACS on LNCaP cells, ADC at 7.901 nM
24P4C12 (human) [3] = target: 24P4C12 (human) (UniProt Q53GD3); assay: FACS on LNCaP cells, ADC at 0.011 nM
24P4C12 (human) [4] = target: 24P4C12 (human) (UniProt Q53GD3); assay: FACS on LNCaP cells, ADC at 0.033 nM
24P4C12 (human) [5] = target: 24P4C12 (human) (UniProt Q53GD3); assay: FACS on LNCaP cells, ADC at 71.111 nM
24P4C12 (human) [6] = target: 24P4C12 (human) (UniProt Q53GD3); assay: FACS on LNCaP cells, ADC at 106.667 nM
24P4C12 (human) [7] = target: 24P4C12 (human) (UniProt Q53GD3); assay: FACS on LNCaP cells, ADC at 2.634 nM
24P4C12 (human) [8] = target: 24P4C12 (human) (UniProt Q53GD3); assay: FACS saturation binding on LNCaP cells (endogenous 24P4C12), one site fit
24P4C12 (human) [9] = target: 24P4C12 (human) (UniProt Q53GD3); assay: FACS on LNCaP cells, ADC at 0.878 nM
24P4C12 (human) [10] = target: 24P4C12 (human) (UniProt Q53GD3); assay: FACS on LNCaP cells, ADC at 160.000 nM
24P4C12 (human) [11] = target: 24P4C12 (human) (UniProt Q53GD3); assay: FACS on LNCaP cells, ADC at 0.293 nM
24P4C12 (human) [12] = target: 24P4C12 (human) (UniProt Q53GD3); assay: FACS on LNCaP cells, ADC at 0.098 nM

Sequence of UniProt Q53GD3 (Q53GD3 whole entry): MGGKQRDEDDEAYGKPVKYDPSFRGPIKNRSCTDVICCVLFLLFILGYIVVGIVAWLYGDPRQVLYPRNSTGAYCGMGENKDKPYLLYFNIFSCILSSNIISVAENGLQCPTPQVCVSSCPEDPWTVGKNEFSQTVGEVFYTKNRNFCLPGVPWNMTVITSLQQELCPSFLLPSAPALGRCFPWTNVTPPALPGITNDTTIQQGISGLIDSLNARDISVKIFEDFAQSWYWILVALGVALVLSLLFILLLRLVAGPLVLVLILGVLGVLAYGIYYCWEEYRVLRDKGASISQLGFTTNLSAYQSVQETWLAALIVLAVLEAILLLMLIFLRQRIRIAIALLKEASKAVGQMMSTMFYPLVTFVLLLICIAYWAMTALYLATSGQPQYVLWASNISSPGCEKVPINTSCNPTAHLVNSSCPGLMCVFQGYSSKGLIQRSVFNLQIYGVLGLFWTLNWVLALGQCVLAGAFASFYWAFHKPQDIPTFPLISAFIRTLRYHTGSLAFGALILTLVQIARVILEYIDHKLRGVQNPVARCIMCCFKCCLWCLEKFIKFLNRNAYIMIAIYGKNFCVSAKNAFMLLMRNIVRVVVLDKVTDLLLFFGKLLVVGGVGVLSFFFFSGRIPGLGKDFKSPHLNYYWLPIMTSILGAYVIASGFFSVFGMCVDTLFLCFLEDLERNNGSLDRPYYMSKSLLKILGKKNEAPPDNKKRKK

B1: Ha5-1(5)2.1vcMMAE (protein)
heavy: QVQLVESGGGVVQPGRSLRLSCAASGFTFSSYGMHWVRQAPGKGLEWVAVMSYDGSKKFYTDSVKGRFTISRDNSKNTLYLQMNSLRAEDTAVYYCARDGGDYVRYHYYGMDVWGQGTTVTVSSASTKGPSVFPLAPCSRSTSESTAALGCLVKDYFPEPVTVSWNSGALTSGVHTFPAVLQSSGLYSLSSVVTVPSSNFGTQTYTCNVDHKPSNTKVDKTVERKCCVECPPCPAPPVAGPSVFLFPPKPKDTLMISRTPEVTCVVVDVSHEDPEVQFNWYVDGVEVHNAKTKPREEQFNSTFRVVSVLTVVHQDWLNGKEYKCKVSNKGLPAPIEKTISKTKGQPREPQVYTLPPSREEMTKNQVSLTCLVKGFYPSDIAVEWESNGQPENNYKTTPPMLDSDGSFFLYSKLTVDKSRWQQGNVFSCSVMHEALHNHYTQKSLSLSPGK
light: DIQMTQSPSTLSASIGDRVTITCRASQGISYYLAWYQQKPGKIPKLLIYDTSSLQSGVPSRFSGSRSGTDLSLTISSLQPEDVATYYCQRYDSAPLTFGGGTKVEIKRTVAAPSVFIFPPSDEQLKSGTASVVCLLNNFYPREAKVQWKVDNALQSGNSQESVTEQDSKDSTYSLSSTLTLSKADYEKHKVYACEVTHQGLSSPVTKSFNRGEC
modifications: vcMMAE (Val-Cit linker, monomethyl auristatin E) on cysteine thiols after partial TCEP reduction; p about 3.6 per antibody; positions not given
MFI (24P4C12 (human) [1]): 97 MFI | MFI (24P4C12 (human) [2]): 86 MFI | MFI (24P4C12 (human) [3]): 7 MFI | MFI (24P4C12 (human) [4]): 9 MFI | MFI (24P4C12 (human) [5]): 108 MFI | MFI (24P4C12 (human) [6]): 114 MFI | MFI (24P4C12 (human) [7]): 70 MFI | Kd (24P4C12 (human) [8]): 1.05 nM | MFI (24P4C12 (human) [9]): 54 MFI | MFI (24P4C12 (human) [10]): 116 MFI | MFI (24P4C12 (human) [11]): 28 MFI | MFI (24P4C12 (human) [12]): 15 MFI
